Experimental data reported in article PMC7835709, “Structural Insight Into the SARS-CoV-2 Nucleocapsid Protein C-Terminal Domain Reveals a Novel Recognition Mechanism for Viral Transcriptional Regulatory Sequences”.

What was measured:
[1] = molecular target: SARS-CoV-2 N-CTD (SARS-CoV-2, UniProt P0DTC9 250-365); experiment: BLI; conditions: protein: recombinant; tags: 6xHis-SUMO tag removed by Ulp1; chain copies: 2; label: 5' biotin
[2] = molecular target: T1, SARS-CoV-2 N CTD+IDR (SARS-CoV-2, UniProt P0DTC9 250-419); experiment: BLI; value order as in text ('respectively'); BLI (Octet RED96e, SSA sensors, biotinylated RNA immobilised): PBS, 0.02% Tween 20, 25 C; pH not stated; 1:1 kinetic fit; conditions: protein: recombinant; tags: 6xHis-SUMO tag removed by Ulp1; chain copies: 2; label: 5' biotin
[3] = molecular target: T2, SARS-CoV-2 N LKR+CTD (SARS-CoV-2, UniProt P0DTC9 183-365); experiment: as above; conditions: protein: recombinant; tags: 6xHis-SUMO tag removed by Ulp1; chain copies: 2; label: 5' biotin
[4] = molecular target: T1, SARS-CoV-2 N CTD+IDR; experiment: BLI; BLI (Octet RED96e, SSA sensors, biotinylated RNA immobilised): PBS, 0.02% Tween 20, 25 C; pH not stated; 1:1 kinetic fit; conditions: protein: recombinant, tags: 6xHis-SUMO tag removed by Ulp1, chain copies: 2
[5] = molecular target: T2, SARS-CoV-2 N LKR+CTD; experiment: as above; conditions: protein: recombinant; tags: 6xHis-SUMO tag removed by Ulp1; chain copies: 2; label: 5' biotin

**Q.** How did the Kd [1] turn out when ACGAAC (ssRNA) [TRS-1 (RNA1)] was run?
**A.** The Kd was 320 µM.

**Q.** What about the Kd [2] of the same binder?
**A.** Its Kd is 33 µM.

**Q.** What about the Kd [3] of the same binder?
**A.** Its Kd is 14 µM.

B1: Duplex TRS-2 (RNA2/RNA5) (dsRNA)
RNA 1: AAACGAAC
RNA 2: GUUCGUUU
**Q.** With B1 as the binder, how does the Kd ([4]; blunt, 8 bp) read?
**A.** The Kd was 18 µM.

B2: Duplex TRS-3 (RNA3/RNA6) (dsRNA)
RNA 1: AAACGAACUU
RNA 2: AAGUUCGUUU
**Q.** Which Kd ([4]; blunt, 10 bp) does the source give for B2 here?
**A.** The Kd was 11 µM.

B3: Unpaired Duplex TRS-1 (RNA1/RNA5, TRS1-cTRS2) (dsRNA)
RNA 1: ACGAAC
RNA 2: GUUCGUUU
**Q.** How did the Kd ([4]; 3' overhang 2 nt (UU) on strand 2) turn out when B3 was run?
**A.** Its Kd is 23 µM.

B4: Unpaired Duplex TRS-2 (RNA2/RNA4) (dsRNA)
RNA 1: AAACGAAC
RNA 2: GUUCGU
**Q.** B4 was tested. Which Kd ([4]; 5' overhang 2 nt (AA) on strand 1 per Methods) did it give?
**A.** Its Kd is 33 µM.

**Q.** How did the Kd [1] turn out when AAACGAAC (ssRNA) [TRS-2 (RNA2)] was run?
**A.** The Kd was 180 µM.

**Q.** And the Kd ([4]; label: 5' biotin)?
**A.** Its Kd is 9.1 µM.

**Q.** And the Kd [5]?
**A.** Its Kd is 17 µM.

**Q.** Which Kd [1] does the source give for AAACGAACUU (ssRNA) [TRS-3 (RNA3)] here?
**A.** The Kd was 150 µM.

**Q.** And the Kd ([4]; label: 5' biotin)?
**A.** Its Kd is 5.9 µM.

**Q.** What about the Kd [5] of the same binder?
**A.** Its Kd is 61 µM.

B5: Duplex TRS-1 (RNA1/RNA4) (dsRNA)
RNA 1: ACGAAC
RNA 2: GUUCGU
**Q.** For B5, which Kd ([4]; blunt, 6 bp) is on record?
**A.** The Kd was 29 µM.
